Legend:
Format in all cases: binding
mouse SEZ6 = biological target: T1, mouse SEZ6 (Mus musculus, UniProt Q7TSK2); experiment: Flow cytometry cross reactivity, Neuro2a cells; settings: 5 μg/mL antibody
T1 construct: Neuro2a (ATCC Cat # CCL131), and RIN-m5F (ATCC cat # CRL-11605) cell lines which express mouse SEZ6 and rat SEZ6; host or cells: Neuro2a
Method: (§1) In this regard flow cytometry was performed using a FACSCanto II as per the manufacturer's instructions in order to confirm that selected SC17 antibody modulators can immunospecifically associate with human SEZ6 and to determine whether the same modulators cross-react with cynomolgus, rat and/or murine SEZ6 in addition to SEZ6L and SEZ6L2. More particularly modulators were tested for cross reactivity to murine SEZ6 and rat SEZ6 by flow cytometry against Neuro2a (ATCC Cat # CCL131), and RIN-m5F (ATCC cat # CRL-11605) cell lines which express mouse SEZ6 and rat SEZ6, respectively. For examining cross reactivity to cynomolgus SEZ6, yeast displaying the extracellular domain of cynomolgus SEZ6 (Boder et al, 1997) were used for flow cytometry analysis.
(§2) Briefly 1×10^5 cells per well of Neuro2a, RIN-5mF, or yeast displaying cynomolgus SEZ6 cells were incubated for 30 minutes with 50 μL PBS (2% FCS) buffer with 5 μg/mL antibody. Cells were washed twice with the same buffer and then incubated with 50 μL per sample DyLight 649 labeled goat-anti-mouse IgG, Fc fragment specific secondary diluted 1:200 in PBS buffer. After incubating for 15 minutes cells were washed twice with the PBS buffer and re-suspended in the same with DAPI for flow cytometry analysis of Neuro2a and Rin-m5F or buffer without DAPI for flow cytometric analysis of yeast cells with cSEZ6.

cynomolgus SEZ6 = experiment: Flow cytometry cross reactivity, yeast displaying extracellular domain of cynomolgus SEZ6; settings: 5 μg/mL antibody
Method: as §1, §2

SEZ6 ECD = biological target: T2, SEZ6 ECD (Homo sapiens, UniProt Q53EL9); experiment: Fine epitope mapping (phage display peptide library or yeast-displayed SEZ6 ECD mutants); settings: epitope conformational (discontinuous) or linear
T2 construct: SEZ6 extracellular domain (amino acids 1-904); expressed in transfected cells; host or cells: yeast (surface display, Cochran et al. protocol)
Method: Epitopes were classified either as conformational (i.e. discontinuous) or linear. Yeast displaying the SEZ6 ECD construct was heat treated for 30 minutes at 80° C. in order to denature the antigen, washed twice in ice-cold PBSA and then subjected to the same staining protocol and flow cytometry analysis as described above. Antibodies that bound to both the denatured and native yeast were classified as binding to a linear epitope, whereas antibodies that bound native yeast but not denatured yeast were classified as conformationally specific.
Fine epitope mapping was further performed on selected antibodies to determine the specific amino acids to which they bound. Antibodies that bound to a linear epitope were mapped using the Ph.D.-12 phage display peptide library kit (New England Biolabs E8110S). The antibody selected for epitope mapping was coated onto a Nunc MaxiSorp tube (Nunc) at 50 μg/mL in 3 mL 0.1 M sodium bicarbonate solution, pH 8 and incubated overnight. The tube was blocked with 3% BSA solution in bicarbonate solution. Then, 10^11 input phage in PBS+0.1% Tween-20 was allowed to bind, followed by ten consecutive washes with 0.1% Tween-20 to wash away non-binding phage. Remaining phage were eluted with 1 mL 0.2 M glycine for 10 minutes at room temperature with gentle agitation, followed by neutralization with 150 μL 1 M Tris-HCl pH 9. Eluted phage were amplified and panned again with 10^11 input phage, using 0.5% Tween-20 during the wash steps to increase selection stringency. DNA from 24 plaques of the eluted phage from the second round was isolated using the Qiaprep M13 Spin kit (Qiagen) and sequenced. Binding of clonal phage was confirmed using an ELISA assay, where the mapped antibody or a control antibody was coated onto an ELISA plate, blocked, and exposed to each clone phage. Phage binding was detected using horseradish peroxidase conjugated anti-M13 antibody (GE Healthcare), and the 1-Step Turbo TMB ELISA solution (Pierce). Phage peptide sequences from specifically binding phage were aligned using Vector NTI (Life Technologies) against the antigen ECD peptide sequence to determine the epitope of binding.
Selected antibodies that bound to a discontinuous epitope were mapped using the technique described by Chao et al. (2007). Libraries of SEZ6 ECD mutants were generated with error prone PCR using nucleotide analogues 8-oxo-2′deoxyguanosine-5′-triphosphate and 2′-deoxy-p-nucleoside-5′triphosphate (both from TriLink Bio) for a target mutagenesis rate of one amino acid mutation per clone. These were transformed into a yeast display format. Using the technique described above for domain-level mapping, the library was stained for c-myc and antibody binding at 50 nM. […] These clones were re-grown, and subjected to another round of FACS sorting for loss of binding to the target antibody. Using the Zymoprep Yeast Plasmid Miniprep kit (Zymo Research), individual ECD clones were isolated and sequenced. Where necessary, mutations were reformatted as single-mutant ECD clones using the Quikchange site directed mutagenesis kit (Agilent).
Individual ECD clones were next screened to determine whether loss of binding was due to a mutation in the epitope, or a mutation that caused misfolding. Mutations that involved cysteine, proline, and stop codons were automatically discarded due to the high likelihood of a misfolding mutation. Remaining ECD clones were then screened for binding to a non-competing, conformationally specific antibody. ECD clones that lost binding to non-competing, conformationally specific antibodies were concluded to contain misfolding mutations, whereas ECD clones that retained equivalent binding as wild type SEZ6 ECD were concluded to be properly folded. Mutations in the ECD clones in the latter group were concluded to be in the epitope. […]

rat SEZ6 = experiment: Flow cytometry cross reactivity, RIN-m5F cells; settings: 5 μg/mL antibody
Sequence of rat SEZ6 (as listed by the source): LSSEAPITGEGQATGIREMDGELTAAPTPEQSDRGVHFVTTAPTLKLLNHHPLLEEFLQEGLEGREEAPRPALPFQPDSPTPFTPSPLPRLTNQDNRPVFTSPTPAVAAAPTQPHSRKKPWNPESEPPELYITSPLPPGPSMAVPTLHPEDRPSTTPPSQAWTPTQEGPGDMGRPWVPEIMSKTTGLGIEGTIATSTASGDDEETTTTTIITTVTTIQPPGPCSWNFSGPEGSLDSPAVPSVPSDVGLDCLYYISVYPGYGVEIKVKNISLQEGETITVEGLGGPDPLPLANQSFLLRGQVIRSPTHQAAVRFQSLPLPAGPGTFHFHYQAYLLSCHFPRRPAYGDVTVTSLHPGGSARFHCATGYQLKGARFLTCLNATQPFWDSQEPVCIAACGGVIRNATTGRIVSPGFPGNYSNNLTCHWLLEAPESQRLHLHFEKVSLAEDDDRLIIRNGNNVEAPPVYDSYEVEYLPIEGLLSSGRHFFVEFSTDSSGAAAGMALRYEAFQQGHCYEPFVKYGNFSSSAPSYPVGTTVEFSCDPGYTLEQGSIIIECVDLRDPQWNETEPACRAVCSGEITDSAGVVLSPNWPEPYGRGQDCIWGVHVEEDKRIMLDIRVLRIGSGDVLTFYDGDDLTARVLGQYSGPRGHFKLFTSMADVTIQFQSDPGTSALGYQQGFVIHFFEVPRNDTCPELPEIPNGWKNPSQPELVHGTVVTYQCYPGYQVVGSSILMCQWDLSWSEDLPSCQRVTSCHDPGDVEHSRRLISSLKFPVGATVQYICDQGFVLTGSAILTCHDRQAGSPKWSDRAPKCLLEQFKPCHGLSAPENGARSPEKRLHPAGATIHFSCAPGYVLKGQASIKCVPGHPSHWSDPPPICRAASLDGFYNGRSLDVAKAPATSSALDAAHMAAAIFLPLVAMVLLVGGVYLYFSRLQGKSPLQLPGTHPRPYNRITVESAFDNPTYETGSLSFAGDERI
Method: as §1, §2

[1] = biological target: T3, human recombinant SEZ6-His (Homo sapiens, UniProt Q53EL9); experiment: Affinity by bio-layer interferometry (ForteBio RED) or surface plasmon resonance (Biacore 2000); settings: surface plasmon resonance
T3 construct: The cDNA fragment encoding the ECD of SEZ6 was amplified from the hSEZ6 cDNA clone; IgK signal peptide (N, cleaved yes); made in house; host or cells: HEK-293T and/or CHO-S
Method: Various methods were used to analyze the binding and immunochemical characteristics of selected SEZ6 modulators generated as set forth above. Specifically, a number of the antibody modulators were characterized as to affinity, binning, and cross reactivity with regard to human, cynomolgus, rat and mouse SEZ6 antigen along with SEZ6L and SEZ6L2 proteins by art-recognized methods including flow cytometry. Affinities and kinetic constants kon and koff of the selected modulators were measured using bio-layer interferometry analysis on a ForteBio RED (ForteBio, Inc.) or surface plasmon resonance using a Biacore 2000 each according to the manufacturer's instructions.
To verify the cross reactivity data above for rat SEZ6 and to determine the affinity and kinetic constants kon and koff of the selected effectors, either bio-layer interferometry analysis on a ForteBio RED (ForteBio, Inc.) or surface plasmon resonance on a Biacore 2000 (GE Healthcare) were conducted. Affinities were determined to both human recombinant SEZ6-His and rat recombinant SEZ6-His generated in Example 5.
Binding characteristics of the following humanized constructs from Example 8, hSC17.16, hSC17.17, hSC17.24, hSC17.28, hSC17.34 and hSC17.46, were analyzed in order to determine whether the CDR grafting process had appreciably altered their binding characteristics. The humanized constructs (CDR grafted) were compared with “traditional” chimeric antibodies comprising the murine parent (or donor) heavy and light chain variable domains and a human constant region substantially equivalent to that used in the humanized constructs. With these constructs surface plasmon resonance was conducted using a Biacore 2000 (GE Healthcare) to identify any subtle changes in rate constants brought about by the humanization process.

T1 sequence (Q7TSK2 20-991): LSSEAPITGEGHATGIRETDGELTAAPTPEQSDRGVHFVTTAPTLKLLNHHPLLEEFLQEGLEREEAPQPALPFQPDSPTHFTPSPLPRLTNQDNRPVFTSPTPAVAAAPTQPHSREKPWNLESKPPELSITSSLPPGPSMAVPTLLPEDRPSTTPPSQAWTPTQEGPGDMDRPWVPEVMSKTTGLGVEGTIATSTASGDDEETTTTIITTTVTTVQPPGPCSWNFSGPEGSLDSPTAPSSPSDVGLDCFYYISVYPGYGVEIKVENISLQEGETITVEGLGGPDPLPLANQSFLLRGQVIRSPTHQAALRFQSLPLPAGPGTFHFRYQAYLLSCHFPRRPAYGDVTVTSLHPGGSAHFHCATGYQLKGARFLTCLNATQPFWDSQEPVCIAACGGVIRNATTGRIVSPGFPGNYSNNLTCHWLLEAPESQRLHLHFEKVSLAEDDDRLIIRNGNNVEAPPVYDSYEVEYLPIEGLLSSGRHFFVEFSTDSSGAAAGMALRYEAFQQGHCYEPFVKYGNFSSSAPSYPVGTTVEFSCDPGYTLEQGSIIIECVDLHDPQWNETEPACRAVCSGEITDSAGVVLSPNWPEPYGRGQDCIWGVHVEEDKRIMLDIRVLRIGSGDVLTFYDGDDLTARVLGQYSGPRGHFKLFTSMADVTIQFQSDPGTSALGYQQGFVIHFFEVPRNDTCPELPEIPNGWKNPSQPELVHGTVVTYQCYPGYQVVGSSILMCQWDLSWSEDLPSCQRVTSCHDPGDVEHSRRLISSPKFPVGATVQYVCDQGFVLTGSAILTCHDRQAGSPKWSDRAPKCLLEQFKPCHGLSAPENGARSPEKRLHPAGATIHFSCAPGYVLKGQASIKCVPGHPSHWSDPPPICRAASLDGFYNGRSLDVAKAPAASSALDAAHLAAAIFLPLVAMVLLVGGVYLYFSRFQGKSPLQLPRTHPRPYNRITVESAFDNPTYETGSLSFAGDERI

Molecule | binding affinity compared with corresponding murine or chimeric antibody [1] | also measured
SC17.24: murine anti-SEZ6 antibody; duplicate sequence of SC17.2 (antibody, V domains shown, Murine SC17.2 VH; Murine SC17.2 VL) VH: QVQLQQSDAELVKPGASVKISCKVSGYTFTDHTIHWMKQRPEQGLEWIGYIYPRDGSTKYNEEFKGKATLTADKSSSTAYMQLNSLTSEDSAVYFCARSYSNYFDYWGQGTTLTVSS VL: DIVMSQSPSSLAVSVGEKVTMSCKSSQSLLYSSNQKSYLAWYQQKPGQSPKLLIYWASTRESGVPDRFTGSGSGTDFTLTISSVQAEDLAVYYCKQSYNLRTFGGGTKLEIK | – | cross reactivity to murine SEZ6 (mouse SEZ6): cross reactive; cross reactivity to cynomolgus SEZ6 (cynomolgus SEZ6): cross reactive; Discontinuous (SEZ6 ECD): No
SC17.42: murine anti-SEZ6 antibody (antibody, V domains shown, Murine SC17.42 VH; Murine SC17.42 VL, murine anti-SEZ6 antibody) VH: DVKLVESGGGLVRPGGSLKLSCAASGFTFSRYTMSWVRQTPEKRLEWAATINSGGSNTYYPDSVKGRFTISRDNAKNTLFLQMSSLKSEDTAMYYCTNGNHWGQGTTLTVSS VL: ENVLTQSPAIMSASPGEKVTMTCSASSSVNYMYWYQQKSSTSPKLWIYDTSKLTSGVPGRFSGSGSGNSYSLTISNMEAEDVATYYCFQGSGYPLTFGSGTKLEIK | – | cross reactivity to murine SEZ6 (mouse SEZ6): cross reactive; cross reactivity to rat SEZ6 (rat SEZ6): cross reactive
hSC17.16: humanized (CDR grafted) anti-SEZ6 antibody derived from SC17.16 (antibody, V domains shown, Humanized hSC17.16 VH; Humanized hSC17.16 VL) VH: QVQLVQSGAEVKKPGASVKVSCKASGYTFTDYNMYWVRQAPGQGLEWMGEINPNNGGTAYNQKFRGKVTMTRDTSISTAYMELSRLRSDDTAVYYCARYDKGFDYWGQGTTVTVSS VL: DIQMTQSPSSLSASVGDRVTITCRASANINSNLVWYQQKPGKAPKLLIYAATNLADGVPSRFSGSGSGTDFTLTISSLQPEDFATYYCQHFWGTPRTFGGGTKLEIK | equivalent or better than the corresponding murine antibodies | –
hSC17.17: humanized (CDR grafted) anti-SEZ6 antibody derived from SC17.17 (antibody, V domains shown, Humanized hSC17.17 VH; Humanized hSC17.17 VL) VH: QVQLVQSGAEVKKPGASVKVSCKASGYTFTDYNMHWVRQAPGQGLEWMGEINPNIGGTGYNQKFKGRVTMTRDTSISTAYMELSRLRSDDTAVYYCARTYSYYSYEFAYWGQGTLVTVSS VL: EIVLTQSPATLSLSPGERATLSCSASSSVSYMHWYQQKPGQAPRLLIYDTSKLPSGIPARFSGSGSGTDFTLTISSLEPEDFAVYYCQQWSSTPPTFGQGTKLEIK | equivalent or better than the corresponding murine antibodies | –
hSC17.28: humanized (CDR grafted) anti-SEZ6 antibody derived from SC17.28 (antibody, V domains shown, Humanized hSC17.28 VH; Humanized hSC17.28 VL) VH: QVQLVQSGAEVKKPGASVKVSCKASGYTFTRSYIHWVRQAPGQGLEWMGYISSGSGGTTYNQKFKGRVTSTRDTSISTAYMELSRLRSDDTAVYYCARGGVRYFDVWGQGTTVTVSS VL: EIVLTQSPDFQSVTPKEKVTITCRASQSIGTSIHWYQQKPDQSPKLLIKYASESISGVPSRFSGSGSGTDFTLTINSLEAEDAATYYCQQSNSWPLTFGQGTKLEIK | equivalent or better than the corresponding murine antibodies | –
hSC17.34: humanized (CDR grafted) anti-SEZ6 antibody derived from SC17.34 (antibody, V domains shown, Humanized hSC17.34 VL) VH: QVQLVQSGAEVKKPGASVKVSCKASGYTFTDYNMDWVRQAPGQRLEWIGYIYPDNGGAGYNQKFKGRVTITVDTSASTAYMELSSLRSEDTAVYYCSRSITTAWFAYWGQGTLVTVSS VL: DIQMTQSPSSLSASVGDRVTITCKASQDINSYLSWFQQKPGKAPKSLIYRANRLVDGVPSRFSGSGSGTDYTLTISSLQPEDFATYYCLQYDEFPPTFGQGTKLEIK | equivalent or better than the corresponding murine antibodies | –
hSC17.46: humanized (CDR grafted) anti-SEZ6 antibody derived from SC17.46 (antibody, V domains shown, Humanized hSC17.46 VH; Humanized hSC17.46 VL) VH: QVQLVQSGAEVKKPGASVKVSCKASGYTFTSYWINWVRQAPGQGLEWIGNIFPDTTTTNYNEKFKGRVTLTRDTSISTAYMELSRLRSDDTAVYYCAREYYDGTYDAMDYWGQGTLVTVSS VL: AIQMTQSPSSLSASVGDRVTITCKASQSVNNDVAWYQQKPGKAPKLLIYYASNRYTGVPSRFSGSGSGTDFTLTISSLQPEDFATYFCQQDYSSPRTFGQGTKLEIK | equivalent or better than the corresponding murine antibodies | –

From US9993566B2, “SEZ6 modulators and methods of use” (AbbVie Stemcentrx LLC, priority 2013, dated 2018)
